# According to publication doi:10.1101/160580 (bioRxiv, 2017):
# Residue numbers refer to the chain shown, from its start. Numbers in names are those of the source.
# B1: sperm lysin from red abalone (Haliotis rufescens), wild type (natural protein)
# chain: RSWHYVEPKFLNKAFEVALKVQIIAGFDRGLVKWLRVHGRTLSTVQKKALYFVNRRYMQTHWANYMLWINKKIDALGRTPVVGDYTRLGAEIGRRIDMAYFYDFLKDKNMIPKYLPYMEEINRMRPADVPVKYMGK
# B2: F104A lysin (monomeric mutant of red abalone sperm lysin) (natural protein)
# chain: B1 chain with F104A
# Tests used:
# NMR relaxation = target: the molecule itself; assay: NMR relaxation
# [1] = target: the molecule itself; assay: cell-based or functional assay
protein,measurement,setting,value
B1,binding result,NMR relaxation,binds
B2,"in vitro VE dissolution (turbidity at 640 nm), F104A lysin against WT lysin",[1],≥ 4 fold
